According to patent US20140274782A1, “AFFINITY REAGENTS AND METHODS FOR DETECTION, PURIFICATION, AND PROTEOMIC ANALYSIS OF METHYLATED PROTEINS” (The Board of Trustees of the Leland Stanford Junior …, priority 2013, published 2014):

B1: FAM50A: protein with methylated lysine identified in 3xMBT pull-down (protein, UniProt Q14320 2-339, looked up)
Protein FAM50A: AQYKGAASEAGRAMHLMKKREKQREQMEQMKQRIAEENIMKSNIDKKFSAHYDAVEAELKSSTVGLVTLNDMKAKQEALVKEREKQLAKKEQSKELQMKLEKLREKERKKEAKRKISSLSFTLEEEEEGGEEEEEAAMYEEEMEREEITTKKRKLGKNPDVDTSFLPDRDREEEENRLREELRQEWEAKQEKIKSEEIEITFSYWDGSGHRRTVKMRKGNTMQQFLQKALEILRKDFSELRSAGVEQLMYIKEDLIIPHHHSFYDFIVTKARGKSGPLFNFDVHDDVRLLSDATVEKDESHAGKVVLRSWYEKNKHIFPASRWEPYDPEKKWDKYTIR
modifications: methylated lysine
notes: protein with methylated lysine identified in 3xMBT pull-down
B2: eEF1A2: protein with methylated lysine identified in 3xMBT pull-down (protein, UniProt Q05639 2-463, looked up)
Elongation factor 1-alpha 2: GKEKTHINIVVIGHVDSGKSTTTGHLIYKCGGIDKRTIEKFEKEAAEMGKGSFKYAWVLDKLKAERERGITIDISLWKFETTKYYITIIDAPGHRDFIKNMITGTSQADCAVLIVAAGVGEFEAGISKNGQTREHALLAYTLGVKQLIVGVNKMDSTEPAYSEKRYDEIVKEVSAYIKKIGYNPATVPFVPISGWHGDNMLEPSPNMPWFKGWKVERKEGNASGVSLLEALDTILPPTRPTDKPLRLPLQDVYKIGGIGTVPVGRVETGILRPGMVVTFAPVNITTEVKSVEMHHEALSEALPGDNVGFNVKNVSVKDIRRGNVCGDSKSDPPQEAAQFTSQVIILNHPGQISAGYSPVIDCHTAHIACKFAELKEKIDRRSGKKLEDNPKSLKSGDAAIVEMVPGKPMCVESFSQYPPLGRFAVRDMRQTVAVGVIKNVEKKSGGAGKVTKSAQKAQKAGK
B3: TUBB4: protein with methylated lysine identified in 3xMBT pull-down (protein, UniProt P04350 1-444, looked up)
Tubulin beta-4A chain: MREIVHLQAGQCGNQIGAKFWEVISDEHGIDPTGTYHGDSDLQLERINVYYNEATGGNYVPRAVLVDLEPGTMDSVRSGPFGQIFRPDNFVFGQSGAGNNWAKGHYTEGAELVDAVLDVVRKEAESCDCLQGFQLTHSLGGGTGSGMGTLLISKIREEFPDRIMNTFSVVPSPKVSDTVVEPYNATLSVHQLVENTDETYCIDNEALYDICFRTLKLTTPTYGDLNHLVSATMSGVTTCLRFPGQLNADLRKLAVNMVPFPRLHFFMPGFAPLTSRGSQQYRALTVPELTQQMFDAKNMMAACDPRHGRYLTVAAVFRGRMSMKEVDEQMLSVQSKNSSYFVEWIPNNVKTAVCDIPPRGLKMAATFIGNSTAIQELFKRISEQFTAMFRRKAFLHWYTGEGMDEMEFTEAESNMNDLVSEYQQYQDATAEEGEFEEEAEEEVA
B4: hnRNP D: protein with methylated lysine identified in 3xMBT pull-down (protein, UniProt Q14103 2-355, looked up)
Heterogeneous nuclear …: SEEQFGGDGAAAAATAAVGGSAGEQEGAMVAATQGAAAAAGSGAGTGGGTASGGTEGGSAESEGAKIDASKNEEDEGHSNSSPRHSEAATAQREEWKMFIGGLSWDTTKKDLKDYFSKFGEVVDCTLKLDPITGRSRGFGFVLFKESESVDKVMDQKEHKLNGKVIDPKRAKAMKTKEPVKKIFVGGLSPDTPEEKIREYFGGFGEVESIELPMDNKTNKRRGFCFITFKEEEPVKKIMEKKYHNVGLSKCEIKVAMSKEQYQQQQQWGSRGGFAGRARGRGGGPSQNWNQGYSNYWNQGYGNYGYNSQGYGGYGGYDYTGYNNYYGYGDYSNQQSGYGKVSRRGGHQNSYKPY

test system: 3×MBT domain of L3MBTL1; assay: SILAC proteomic pull-down 3×MBT vs 3×MBTD355N from 293T nuclear extract, LC-MS/MS; assay type: binding, human; settings: SILAC ratio, 293T nuclear extract pull-down; * = protein identified in only one labeling experiment
Protocol: Protein pull-downs were performed as described above using 600 μg of nuclear extract prepared with isotopic labels as indicated. After eluting with glutathione, 3×MBT domain was removed by dialysis into high salt and rebinding to GSH-sepharose. Bound proteins were separated by SDS-PAGE and analyzed by in-gel tryptic digest followed by LC-MS/MS. Peptides were identified using MaxQuant version 1.2.2.5 (Cox and Mann (2008) Nat. Biotechnol. 26, 1367-1372) and candidate methylated peptides were verified by manual inspection.
For stable isotope labeling by amino acids in cell culture (SILAC) experiments HEK 293T cells were grown for at least six doublings in DMEM for SILAC supplemented with 10% dialyzed fetal bovine serum (FBS), 230 mg/L L-proline and either 100 mg/L each of L-lysine and L-arginine (“light” medium), D4-L-lysine and ^13C6-L-arginine (“medium” media), or ^13C6^15N2-L-lysine and ^13C6^15N4-L-arginine (Thermo Scientific). Heavy methyl labeling used DMEM without L-Methionine or L-Cysteine supplemented with D3^13C-L-Methionine (Sigma), L-Cysteine (Sigma) and 10% dialyzed FBS.
600 μg of nuclear extract was incubated overnight rotating at 4° C. with 20 μl packed 3×MBT or 3×MBTD355N beads in a total volume of 250 μL with binding buffer. Supernatant was removed and saved for use as a loading control. Beads were washed 4×5 minutes with 0.5 mL binding buffer. Protein was eluted by incubating in 20 μL elution buffer (10 mg/mL glutathione in 50 mM Tris pH 8.0) rotating at 4° C. for four hours. Elutions from 3×MBT and 3×MBTD355N were combined and dialyzed overnight at 4° C. against 10,000× volume of dissociation buffer (50 mM Tris pH 7.5, 750 mM NaCl) in a 0.1 mL Slide-A-Lyzer MINI Dialysis Device with 3.5K molecular weight cutoff (Thermo Scientific). 80 μL of GSH-Sepharose was prepared by washing briefly three times with 0.5 mL binding buffer. Dialyzed proteins were added to the GSH-Sepharose and incubated 4 hours rotating at 4° C. to deplete the GST-fusion domains. Supernatant was transferred to a fresh 1.5 mL tube. Proteins were separated by SDS-PAGE on a 10% polyacrylamide gel and stained using SilverQuest Silver Staining Kit (Life Technologies). Lanes were excised, residual 3×MBT band was removed, and gel was diced into 0.5 mm cubes. Gel pieces were destained and processed by in-gel digestion (Carlson et al. (2011) Science Signaling 4) with sequencing grade trypsin (Promega) and the peptide sample was dried completely in a vacuum centrifuge. To prepare a loading control, 2 μL each of light and heavy nuclear extract were combined, 6 μL of 8M urea was added, proteins were denatured by adding 2 μL of 100 mM dithiothreitol in digest buffer (50 mM ammonium bicarbonate) and heating to 60° C. for 1 hour, cysteine was alkylated by adding 2.2 μL 100 mg/mL iodoacetamide in digest buffer and incubating 1 hour at room temperature in darkness, and proteins were digested by adding 80 μL trypsin (Promega) at 12.5 ng/μL in digest buffer and incubating overnight at room temperature in darkness. Digestion was stopped by adding 10 μL of 10% formic acid.
Each experiment consisted of two sets of pull-downs: “forward” labeling with 3×MBT incubated with light nuclear extract and 3×MBTD355N with medium extract, and a second “reverse” labeling experiment with the label conditions swapped. Proteins were included in the results if they were quantified in both labeling directions. To determine reproducibility the entire experiment including the label swap was duplicated using independent protein preparations and a mass spectrometer at another institution.
For 3×MBT pull-down experiment #1 the gel lane was processed and peptides were loaded off-line onto a first dimension trap column (Waters Xbridge, C18, 10 μm particle size, 100 Å pore size, 5 cm packing length, 150 μm column i.d.). […]

Molecule | Protein Ratio 3xMBT/D355N
B1 | 3.7*
B2 | 1.5
B3 | 1.9
B4 | 22.5
